Measured values: publication PMC8160712

Target: Recombinant protein G from Escherichia coli (group G Streptococci) (UniProt P06654)
Experiment: total internal reflected imaging ellipsometry (TIRIE); protein G immobilised on EDC/NHS-activated MUA gold surface (100 μg/mL in the whole-process run); antibody flowed over for 20 min, rinsed with PBST; real-time grayscale signal

Substance | TIRIE signal increase [grayscale] | TIRIE signal increment with protein G
Anti-CD63 antibody [MEM-259] | 900 | 650
Anti-CD9 antibody [MEM-61] | 900 | 640
